# Literature values in paper PMC13348789.
# pKd: −log10 of the molar value.
# Target: IL-2Rβ/γc intermediate-affinity receptor (Homo sapiens) (UniProt P14784)
# UniProt P14784, sequence (P14784 27-240, chain 1 of 2): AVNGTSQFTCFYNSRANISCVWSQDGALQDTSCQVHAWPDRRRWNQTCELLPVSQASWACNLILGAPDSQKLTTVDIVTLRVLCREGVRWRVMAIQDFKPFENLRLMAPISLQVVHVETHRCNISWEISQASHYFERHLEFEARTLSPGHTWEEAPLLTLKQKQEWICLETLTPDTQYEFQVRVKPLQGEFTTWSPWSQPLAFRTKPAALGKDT
# UniProt P14784, sequence (P31785 23-262, chain 2 of 2, further chain): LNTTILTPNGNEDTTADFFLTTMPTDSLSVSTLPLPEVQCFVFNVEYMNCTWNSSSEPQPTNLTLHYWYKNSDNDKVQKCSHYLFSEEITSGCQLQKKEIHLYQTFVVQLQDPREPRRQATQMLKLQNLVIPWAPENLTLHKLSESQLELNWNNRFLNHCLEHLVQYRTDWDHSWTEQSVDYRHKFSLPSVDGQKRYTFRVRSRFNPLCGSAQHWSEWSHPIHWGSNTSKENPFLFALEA
substance,measurement,value
IL-2 (from UniProt P60568),pKd,9.00
